From patent US6254870, “Thrombopoietin: IL-3 fusion protein” (G. D. Searle & Co., dated 2001)

B1: 1-332 c-mpl ligand P(46)L, W(200)R (pMON26451-4) (ligand)
chain: SPAPPACDLRVLSKLLRDSHVLHSRLSQCPEVHPLPTPVLLPAVDLSLGEWKTQMEETKAQDILGAVTLLLEGVMAARGQLGPTCLSSLLGQLSGQVRLLLGALQSLLGTQLPPQGRTTAHKDPNAIFLSFQHLLRGKVRFLMLVGGSTLCVRRAPPTTAVPSRTSLVLTLNELPNRTSGLLETNFTASARTTGSGLLKRQQGFRAKIPGLLNQTSRSLDQIPGYLNRIHELLNGTRGLFPGPSRRTLGAPDISSGTSDTGSLPPNLQPGYSPSPTHPPTPLLPDPSAPTPTPTSPLLNTSYTHSQNLSQEG
B2: 1-332 Δ112-115 c-mpl ligand (pMON26451-3) (ligand)
chain: SPAPPACDLRVLSKLLRDSHVLHSRLSQCPEVHPLPTPVLLPAVDFSLGEWKTQMEETKAQDILGAVTLLLEGVMAARGQLGPTCLSSLLGQLSGQVRLLLGALQSLLGTQGRTTAHKDPNAIFLSFQHLLRGKVRFLMLVGGSTLCVRRAPPTTAVPSRTSLVLTLNELPNRTSGLLETNFTASARTTGSGLLKWQQGFRAKIPGLLNQTSRSLDQIPGYLNRIHELLNGTRGLFPGPSRRTLGAPDISSGTSDTGSLPPNLQPGYSPSPTHPPTGQYTLFPLPPTLPTPVVQLHPLLPDPSAPTPTPTSPLLNTSYTHSQNLSQEG
B3: 1-153 c-mpl ligand (pMON26448) (ligand)
chain: SPAPPACDLRVLSKLLRDSHVLHSRLSQCPEVHPLPTPVLLPAVDFSLGEWKTQMEETKAQDILGAVTLLLEGVMAARGQLGPTCLSSLLGQLSGQVRLLLGALQSLLGTQLPPQGRTTAHKDPNAIFLSFQHLLRGKVRFLMLVGGSTLCVR
B4: 1-153 Δ112-115 c-mpl ligand (pMON26450) (ligand)
chain: SPAPPACDLRVLSKLLRDSHVLHSRLSQCPEVHPLPTPVLLPAVDFSLGEWKTQMEETKAQDILGAVTLLLEGVMAARGQLGPTCLSSLLGQLSGQVRLLLGALQSLLGTQGRTTAHKDPNAIFLSFQHLLRGKVRFLMLVGGSTLCVR

What follows are binders tested against T1, human c-mpl-R (human, UniProt P40238) (assay: cell-based or functional assay).

Row | Binder | TF1 Proliferation Assay: total counts tritiated thymidine incorporation, 10% supernatants
1 | B1 | 122000 total counts
2 | B2 | 35600 total counts
3 | B3 | 115000 total counts
4 | B4 | 60800 total counts

Molecular target: T1, human c-mpl-R
Assay: cell-based or functional assay
Remark: another data set of the same source

Row | Binder | Bone Marrow Proliferation Assay: Cells/Well after 10 Day Culture of CD34+ enriched cells
5 | B1 | 16000 cells/well
6 | B2 | < 500 cells/well
7 | B3 | 22500 cells/well
8 | B4 | < 500 cells/well
